Assay results from patent publication US20240199756A1 (CYTOVIA THERAPEUTICS, published 2024).

How the values were obtained:
[1] = biological target: T1, human CD38 expressed on multiple myeloma cells (KMS11, MM1.S) (human, UniProt P28907 1-300); test: flow cytometry on KMS11 wt cells
T1 construct: whole, on cells; Naturally expressed on KMS11 and MM1.S cell lines; a CD38 knock out MM.1S line served as negative control
T1 sequence (looked up): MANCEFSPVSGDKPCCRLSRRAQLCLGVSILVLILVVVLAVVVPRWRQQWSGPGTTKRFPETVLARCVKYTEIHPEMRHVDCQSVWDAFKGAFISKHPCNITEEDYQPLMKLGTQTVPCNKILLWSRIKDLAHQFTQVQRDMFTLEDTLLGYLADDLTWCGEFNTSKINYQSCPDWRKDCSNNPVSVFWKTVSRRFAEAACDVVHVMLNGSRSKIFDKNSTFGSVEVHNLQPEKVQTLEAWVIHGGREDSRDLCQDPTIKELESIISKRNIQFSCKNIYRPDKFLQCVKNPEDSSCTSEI

[2] = biological target: T1, human CD38 expressed on multiple …; test: flow cytometry on MM.1S wt cells
human CD38 protein = biological target: T2, human CD38 protein (human, UniProt P28907 43-300); test: ELISA, plate coated with human CD38 protein, absorbance at 650 nm
T2 sequence (looked up): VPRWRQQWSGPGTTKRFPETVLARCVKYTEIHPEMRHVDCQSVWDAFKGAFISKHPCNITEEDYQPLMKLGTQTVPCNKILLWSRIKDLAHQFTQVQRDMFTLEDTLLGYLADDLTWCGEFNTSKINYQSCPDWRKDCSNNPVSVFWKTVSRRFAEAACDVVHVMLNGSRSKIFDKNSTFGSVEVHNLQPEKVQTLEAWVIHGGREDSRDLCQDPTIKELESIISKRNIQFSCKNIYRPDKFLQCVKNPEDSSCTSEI
Procedure: Binding of the humanized antibody to human CD38 was tested. The ELISA plate was coated with 0.1 mg/well of human CD38 protein. 1t antibody (humanized anti-aNKp46 antibody or humanized anti-CD38 antibody) was added at 0.1 mg/well. Secondary antibody was diluted 1:7500. After addition of Streptavidin-HRP and TMB substrate the optical absorbance was measured at 650 nm.

B1: NKE2 with wild type (WT) Fc (bispecific antibody, human IgG1, kappa)
heavy: not shown
light 1: DIVMTQSPATLSLSPGERATLSCRASQSISDYLHWFQQKPHESPRLLIKYASQSISGIPARFSGSGSGSDFTLTISSLEPEDFAVYYCQNGHSFPLTFGPGTKVDIKRTVAAPAVFIFPPSDEQLKSGTASVVCLLKNFYPREAKVQWKVDNALQSGNSQESVTEQDSKDSTYSLSSTLTLSKADYEKHKVYACEVTHQGLSSPVTKSFNRGEC
light 2: DIQMTQSPSSLSASVGDRVTITCRASENIYSFLAWYQQKPGKAPKLLIYNTKTLTEGVPSRFSGSGSGTDFTLTISSLQPEDFATYYCQHHYGIPLTFGGGTKVEIKRTVAAPSVFIFPPSDEQLKSGTASVVCLLNNFYPREAKVQWKVDNALQSGNSQESVTEQDSKDSTYSLSSTLTLSKADYEKHKVYACEVTHQGLSSPVTKSFNRGEC
notes: Tetravalent IgG1-like tandem-Fab molecule: anti-CD38 Fab, linker, humanized 09 anti-NKp46 Fab, hinge, IgG1 Fc; also called NKE2 WT; NKE2 WT-Fc
EC50 (read off the curve) [1]: ~0.2 µg/mL | EC50 (read off the curve) [2]: ~0.3 µg/mL

B2: NKE2 with mutant null Fc (bispecific antibody, human IgG1, kappa, L234A L235A)
heavy: not shown
light 1: B1 light 1
light 2: B1 light 2
notes: As NKE2 WT but with IgG1 L234A/L235A Fc; also called NKE2 Mut Fc (Fc silent); NKE2 MUT
EC50 (read off the curve) [1]: ~0.2 µg/mL | EC50 (read off the curve) [2]: ~0.3 µg/mL

B3: humanized anti-CD38 antibody (antibody, V domains shown)
VH: QVQLVQSGAEVKKPGASVKVSCKASGYTFTSYWMQWVRQAPGQGLEWMGAIYPGDGDTRYTQKFKGRVTMTRDTSTSTVYMELSSLRSEDTAVYYCARERTTGAPRYFDVWGQGTLVTVSS
VL: DIQMTQSPSSLSASVGDRVTITCRASENIYSFLAWYQQKPGKAPKLLIYNTKTLTEGVPSRFSGSGSGTDFTLTISSLQPEDFATYYCQHHYGIPLTFGGGTKVEIK
notes: also called CD38-IgG1 L234A, L235A; CD38-IgG1 wildtype
binding result (human CD38 protein): binds
